In article PMC2872106 one finds Kd data, which are given here for one substance.

As usually defined, the Kd is the concentration at which binding is half-saturated.

Test [1] concerns the target κI O18/O8 Y87H (human). Put plainly: AUC.
Test [2] concerns the target κI O18/O8 Y87H (human). In words: NMR titration.

As for κI O18/O8 Y87H (domain or fragment), the Kd with κI O18/O8 Y87H (human) [1] was 420 µM; in the test with κI O18/O8 Y87H (human) [2] it was 347 µM.
